Paper PMC5111876 (Microbial Drug Resistance, 2016)
Numbering of substitutions follows the chain as printed. Numbers in names are those of the source. Read-outs that look alike come from different tables or passages of the source.

What was measured:
SEC-MALS [1] = target: the molecule itself; assay: SEC-MALS
SEC [2] = target: the molecule itself; assay: SEC
SEC [3] = target: the molecule itself; assay: SEC; remark: listed apart in the source
SEC-MALS [4] = target: the molecule itself; assay: SEC-MALS; remark: listed apart in the source

B1: Listeria monocytogenes GpsB, full-length wild type (natural protein, L. monocytogenes, UniProt Q8Y614 1-113, looked up)
chain: MTSEQFEYHLTGKEILEKEFKTGLRGYSPEDVDEFLDMVIKDYSTFTQEIEALQAENIRLVQELDNAPLRTSTQPAPTFQAAAQPAGTTNFDILKRLSNLEKHVFGNKLDDNE
stoichiometry N (SEC-MALS [1]): 6

B2: Bacillus subtilis GpsB T75D, full length (natural protein, B. subtilis, UniProt P0CI74 1-98, looked up)
chain: MLADKVKLSAKEILEKEFKTGVRGYKQEDVDKFLDMIIKDYETFHQEIEELQQENLQLKKQLEEASKKQPVQSNDTNFDILKRLSNLEKHVFGSKLYD
binding result (SEC [2]): binds

B3: Bacillus subtilis GpsB T75E, full length (natural protein, B. subtilis, UniProt P0CI74 1-98, looked up)
chain: B2 chain with D75E
binding result (SEC [2]): binds

B4: Listeria monocytogenes GpsB F91A, full length (natural protein, L. monocytogenes, UniProt Q8Y614 1-113, looked up)
chain: B1 chain with F91A
binding result (SEC [3]): binds

B5: Listeria monocytogenes GpsB F91A F105A double mutant, full length (natural protein, L. monocytogenes, UniProt Q8Y614 1-113, looked up)
chain: B1 chain with F91A, F105A
stoichiometry N (SEC-MALS [1]): 2
stoichiometry N (SEC-MALS [4]): 3
